Measurements from paper PMC4046817.

Legend:
Details in all cases: EMSA/footprinting in LrpB binding buffer (ref. 27); composition, pH and temperature not given
[1] = target: T1, Ss-LrpB (Sulfolobus solfataricus P2?) (UniProt Q7LX67); assay: EMSA
T1 sequence: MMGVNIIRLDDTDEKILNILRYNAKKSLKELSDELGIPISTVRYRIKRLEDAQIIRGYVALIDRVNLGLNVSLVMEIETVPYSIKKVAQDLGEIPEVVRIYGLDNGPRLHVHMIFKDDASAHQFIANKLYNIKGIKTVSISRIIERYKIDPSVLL

[2] = system: Ss-LrpB (Sulfolobus solfataricus P2?); assay: EMSA
[3] = target: T1, Ss-LrpB (Sulfolobus solfataricus P2?); assay: in-gel Cu-OP footprinting

Substance	binding [1]	also measured
AGTATCTCGTTAATAACATCGTCTTTGTTACCTTCAAAGAACTCTGCATATATTATTTCGTCGTAAAGAATTAGATATCCTTTTGCACTAGTCAGCAGAGAATATTTATATCCTCTACATCCCTCACAATAACCTCTAACCTCTTTAACTAGTAAATGTTCAATCACAGATAGTTTAATATTTCCTTTTTCAATTATTTCTATATCATTATCTTTTTTAACTGATAATCTCTTAGCTAAATAATAAAGTGCGACCTGA (double strand) [Ssot36 fragment]	no binding	–
AATCTTTCATTCCTCCTCTTATATGGATTATTACTGGTTTGTTTTCTTTTTCGGCTATTTGCAAAAATTTCTCCAGAACTTCTATTTGTTTTTTCCTAAGATCCTCGTCTTTTATCCAAAAGTAATCTAAACCGACTTCACTTATTATCTTCCCATACCTAGTTAATTCCAAACACTTATCAATCTCATTAACCTTATCCTTTACAAATTCTGGATG (double strand) [Sso0046 fragment]	no binding	–
Sso0049 Box 1 fragment	–	Kd [2]: 150 nM
CCTTTACTCTTCATGCGACCAATTTTAGTTGTAATTAATTTAACAATTTCTGGTCGCAAGGATTTTATGTTAAATTGAAACATTGGGTATCATTTATAAACGTTCAATTATTATAGAAAGATTCGTTTCGGTCGCATTGAGACTCGAACTTTCACACTTTTAAACAACTTCATAAAAACGAAGTTTGAAGTTCTCTATTTGATAATAATGTTTCACTGATTTCGTATCATATCGAAAAATATTTTTTATCTCTTATCGCTCTCCTTTCATC (double strand) [CRISPR4 (CRISPR B leader) fragment]	–	binding [3]: binds; Kd [1]: 63 nM
ATATGTATATTCAAGCCATTTAGATGAGATAAGGAAAAATAAAGAATTCTATGATATGATTGCAGAGATACTACAAAGGTATTACAAAAAAATAGGCATAGAGAATGTGAATCAGTTGATACTAACTACTATAAAATAGTTCGTATGTCGAACCTTTCTTTACCGAATTCATTATATATCC (double strand) [Sso6904 fragment]	no binding	–
CRISPR4 (CRISPR B leader) fragment	–	Kd [2]: 63 nM
TGGAGAAGATGACGAAATGGTATTAAAGGAACATTCAATTACCTTATGTGATACAATAAAAAGGATGGGAGGGGATTGCGAGTTGCATATAATTCCGAAAATGAAGCACACACCTTTAGGGCAACAGTATCAAACAATTTGGAGTATAATTGAGGATTGGATAAAGAGGAATAGTTCTAGTTTTTAACCAGTTTGTGCCCAGTTCTCATACCTCATGAGTTCATTTCTACCCTTATCTTTAGCCACAATGTCTAGA (double strand) [Sso1433 fragment]	binds	–
CGCATTAGAAGTAAAGAACGTAAATACTATGGCAGGAGTGTTATTACCAGCAAGGAACTTGGCATTAGCTAGGGAAATGGGGGCCGATGCGGTAGTTTCAGCTTGTCCTGGTTGTCACTATTCCTTATCTAGAACTCAATATTATCTGACTAAATACCCCAAATTAAGAGAAAAGACTAATATGTATTTAGAAAAAATGGGTACTAAGAATTATGATCTAAAGTTAATGCTAGTTCACGCTGTTGAATATATTTACAATA (double strand) [Sso1135 fragment]	binds	–
